Assay: yeast display, Sf9 membrane polyspecificity reagent, FACS + sequencing; frameworks hold sequencing errors
Procedure, shortened: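 Galactose induction of a Saccharomyces cerevisiae BJ5465 synthetic nanobody display library ran 36–48 hours. The cells were then stained for 1 hour at 4 °C with 10% biotinylated, detergent-solubilized Sf9 membrane reagent, pulled down on streptavidin microbeads and FACS-sorted into low and high (top ~1%) gates on expression and reagent-binding fluorescence. Labels for polyreactivity follow the gate of origin.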

Row | Sequence | polyreactivity (PSR sort gate)
1 | QVQLVESCGGLVQAGGSLRLSCAASGRTFRDNAMGWYRQAPGKERELVAAIDIDSSTYYADSVEGRFTISRDNAKNTVYLQMNSLKPEDTAVYYCAAESYHDGKGFPDYEYWGQGTQVTVSS | low polyreactivity
2 | QVQLVESGGGLVQAGGSLRLSCAASGRIFQYYTMGWYRQAPGKERELVAAITYSGGDTRYADSVKGRFTISRDNAKNTVYLQMNSLKPEDTAVYYCAAHYFHQYQYGVWTYGYWGHGTQVTVSS | low polyreactivity
3 | QVQLVESGGGLVQAGGSLRLTCAASGRIFGAYTMGWYRQEPGKERELVAAISWSGGRTYYADSVKGRFTISRDNAKNTFYLQLNSLNAEDTAVYYCNVRRQSGRYRVYEYDYWGQGTQVTVSS | low polyreactivity
4 | QVQLVESGGGLVQAGGSLRLSCAASGFIFPRYAMGWYRQAPGKERELVAAISYTGGSTYYADSVKGRFTISRDNAKNTVSLQMNSLKPEDTAVYYCYAYFLSQYQRGYRDDYWGQGTQVTVSS | high polyreactivity
5 | QVQLVESGGGLVQAGGSLRLSCAASGRIFSPSDMGWYRQAPGKERELVAAIRSDGGRTHYADSVKGRFTISRDNAKNTVYLQMNTLKPEDTAVYYCARDNGRTITTTDTYDYWRQGTQVTVSS | low polyreactivity
6 | QVQLVESGGGLVQAGGSLRLICAASGLTFVPNAMGWYRQAPGKERELVAGITSAGSTYYADSVKGRFTISRDNAKNTVYLQMNSLKPEDTAVYYCAKQFYRGFRYGYWGQGTQVTVSS | high polyreactivity
7 | QVQLVESGGGLVQAGGSLRLSCAASGSTFEDYAMGWYTQAPGKERELVAAINKTGGSTNYADSVKGRFTISRDNAKNTVYLQMNSLKPEDTAVYYCAADGSNYSASVAAFPYRVVYWGQGTQVTVSS | low polyreactivity
8 | HVQLVESGGGLVQAGGSLRLSCAASGRIFPGNVMGWYRHAPGKERELVAGIDSSGGSTSYADSVKGRFTISRDNAKNSVYLQMNSLKPEDTAVYYCAKVRDQARYQWGYQEFDYWGEGTQVTVSS | low polyreactivity
9 | QVQLVESGGSLVQAGGSHRLSCAASRSIFPPYAMGWYRPAAGKERELVAAITLRGGSTYYADSVKGRFTISRDNAKNTVYLQMNSLKPEDTAVYYCAAYKSAREYYWGQGTQVTVSS | high polyreactivity
10 | QVQLVETGGGLVQAGGSLRLSCAASGLIFVSNAMGWYIQAPGKVRELVAAISKSVGRTYYADSVKGRFTISRDNEKNTVYLQMNSLQPEDTAVYYCAARSRVSPRYDYWGQGTQVTVSS | high polyreactivity
11 | QVQLVESGGGLVQAGGSLRLSCAASGSTFDTNAMGWYRQAPGKDRELVAAITSGGNTYADSVKGRFTISRDNAKNTVYLQMNSLKPEDTAVYYCAAEDVYTGWYDYWGQGTQVTVSS | low polyreactivity
12 | QVQLVESGGGLVQAGGSLRLSCDASGRTFAYYAMGWYRQAPGKERELVAAISNGGSTYYADSVKGRFTISRDNAKNTVYLQMNRLKPEDTSVYYCNAYYSDLYDYWGQGTQVTVSS | low polyreactivity
13 | QFQLVESGRGLVQAGGSLRLSCAASGRTFTYYAMGWYRQAPGNERELVAAIRYTGGSTHYADSVKGRFTISRENAKNTVYFQMNSLKPEDTAVYYCADRRAYTRGGTVYFGYYYWGQGTQVTVSS | high polyreactivity
14 | QVQLVESGGGLDQAGGSLRLSCAASGFTFVDYDIGWYRQATGKERELVAAITYSGGSTSYADSVKGRFTISRDNSKTTFYLQMNSLKPEDTAVYYCAGEPVGEIMDYWGQGTQVTVSS | low polyreactivity
15 | QVQLVESGGGLVQAGGSLRLSCAASGRIFTYNAMGWYRQAPGKERELVAVITSGGSTYYADSVKGRFTISRDNAKNTVYLQMNSLKPEDTAVYYCAARVWGSSQYYYWGQGTQVTVSS | low polyreactivity
16 | QVQLVESGGGLVQAGGSLRLSCAASGRIFRKYAMGWYRQAPGKERELVAAISGSGGSTYYADSVKGRFTISRDNAKNTVYLQMNSLKPEDTAVYYCAASAGRYSSTLGYYWGQGTQVTVSS | high polyreactivity

Row | Sequence | polyreactivity (PSR sort gate)
17 | QVQLVESGGGLVQAGGSLRLSCAASGRTFGFYDMGWYRQAPGKERELVAAIRGSIGYTYYADSVKGRITISRDNAKNTVYLQMTSLKPEDTAVYYCAKAIRYPAAKFYWGQGSQVTVSS | high polyreactivity
18 | QVQLVESGGGLVQAGGSLRLSCAASGSIFGYNTMGWYRQAPGKERELVAAISWNGGNTYYADSVKGRFTISRDNAKNTVYLQMNSLKPEDTEVYYCNARTRSRSRGFDSWGQGTQVTVSS | high polyreactivity
19 | QVQLEESGGGLVQAGGSLRLSCAASGTILDSNAIGWYRQAPGKERELVAAITSCGSTYYADSVKGRFTISRDNAKNTVYLQMNSLKPEDTAVYYCAAAYLGYVAVQPSYEVGYWGQGTQVTVSS | low polyreactivity
20 | QVQLVESGGGLVQAGGSLRLSCAASGLIFFVYAMGWYRQAPGKERELVAAISASGVSTNYADSVKGRFTISRDNAKNTVYLQMNSLKPEDTAVYYCAAGRGGYGYWGQGTQVTVSS | low polyreactivity
21 | QVQLVESGGALVQAGGSLRLICAASGGTFTNYAMGWYSQAPGKERELVAAITDSGATTYYADSVKGRFTNSRDNAKNTVYLQMNSLKPEDTAVYYCNAELDLYTDFDYWGQGTQVTVSS | low polyreactivity
22 | QVQLVESGGGLVQAGGSLRLSCAASGSIFYTNAMGWYRQAPGKERELVATITSSTGSTNYADSVKGRFTISRDNAKNTVYLQMNSLKPEDTAVYYCAKRDCYWVYYQMDYWGQGTQVTVSS | low polyreactivity
23 | QVQLVESGGGLVQAGGSLRLSCAASGFTLGWYAMGWYRQAPGKERELVAAISRSGGSTYYADSVKGRFTISRDNAKNTVYLQMNSLKPEDTAVYSCAAEVNYAGWAVWSYYWGQGTQVTVSS | high polyreactivity
24 | QVQLVESGGGLVQAGGSLRLSCAASGIFAWNAMGWYRQAPGKERELVAAISWSGGSTYADSVKGRFTISRDNAKNTVYLQMNSLKPEDTAVYYCAKVSSLTSKSDYSGQGTQVTVSS | low polyreactivity
25 | QVQLVESGGGLVQAGGSLRLSCAASGFIFAHNAMGWYRQAPGKERELVADITRDGNTYYADSVKGRFTISRDNAKNTVYLQMNSLKTEDTAVYYCAADVSTTWYWWGQFEFEYWGQGTQVTVSS | high polyreactivity
26 | QVQLVESGGGLVQAGGSLRLSCAASGLTFSHYAMGWYRQAPRKERELVAGISSRGGNTYYADSVKGRFTISRDNAKNTVYLQMNSLKPEDTAVYYCNAPKPKRAYDYWGQGTQVTVSS | high polyreactivity
27 | QVQLVESGGGLVQAGGSLRLSCAASGFNFYRYAMGWYRQAPGKERELVAVITGRGGTTYYSDSVKGRFTISRDNAKNTVYLQMNSLKTEDTAVYYCAAPQQQSWTYDGRYGYWGQGTKVTVSS | high polyreactivity
28 | QVQLVESGGGLVQAGGSLRLSCAASGSTFTGNSMGWYRQAPGKERELVAAISRSGGSTFYADSVKGRFTISRDNAKNTVSLQMNSLKPEDTAVYYCATRYVVDMDYWGQGTQVTVSS | high polyreactivity
29 | QVQLVESGGGLVQAGGSLRLICAASGFTFSINTRGWYRQAPGKEREFVAGISRSGGSTYYADSVKGRFTISRDNAKNTVYLQMNSLKPEDTAVYYCNADRYSWYTPLGYDYWGQGTQVNVSS | high polyreactivity
30 | QVQLVESGGGLVQAGGSLRLSCAASGSIFPYYVMGWYRQAPGKERELVAAISWSGASTYYADSVKGRFTISRDNAKNTVYLQMNSLKPEDTAVYYCAKYSSHFENDYWGQGTQVTVSS | low polyreactivity
31 | QVQLVESGGGLVQAGGSLRLSCAASGRIFYPNAMGWYRQAPGKERELVAGISRSGGSTYYADSVKGRFTISRDNAKNTVYLQMNSLKPEVTAVFYCAARYYASDRHFRGDYWGQGTQVTVSS | low polyreactivity
32 | QVQLVESGGGLVQAGGSLRLICAASGFIFDTYTMGWYRQAPGKERELVAAISRSGASTYYADSVKGRFTISRDNAKNTVYLQMNSLKPEDTAVYYCATVYYPSYRGGYDYWGQGTQVTVSS | high polyreactivity

From the nanobody polyreactivity screen of Harvey et al. (2022)
